Reference: article PMC4709722, “Flavone synthases from Lonicera japonica and L. macranthoides reveal differential flavone accumulation” (Scientific Reports, 2016)
Positions count from the first letter of the chain named. Names may count otherwise.

Experiments:
Experiment in all cases: cells, lysate or membranes
[1] = substrate: O=C1C[C@@H](c2ccc(O)c(O)c2)Oc2cc(O)cc(O)c21; conditions: NADPH, potassium phosphate, product luteolin
[2] = substrate: O=C1C[C@@H](c2ccc(O)cc2)Oc2cc(O)ccc21; conditions: apparent Km; NADPH, potassium phosphate, optimized conditions (about pH 7.5, 37 °C); product 7,4'-dihydroxyflavone; pH 7.5; 37.0 °C
[3] = substrate: O=C1C[C@@H](c2ccc(O)cc2)Oc2cc(O)cc(O)c21; conditions: apparent Km; NADPH, potassium phosphate, optimized conditions (about pH 7.5, 37 °C); product apigenin; pH 7.5; 37.0 °C
[4] = apparent Km, optimized conditions (about pH 7.5, 37 °C), pH 7.5, 37.0 °C

B1: LmFNSII-1.1 (Lonicera macranthoides; V204M) (protein)
chain: MLIFDLTISFTTLLFLIFTTALLLKVFKKNHKLQPPPSPFTLPIIGHLHLLGPLIHQSFHRLSTLYGPLIQLKIGYIPCVVASTPELAKEFLKTHELAFSSRKHSAAIKLLTYDVSFAFAPYGPYWKFIKKTCTFELLGTRNMNHFLPIRTNEIRRFLQVMLEKAKASEGVNVTEELIKLTNNVISQMMFSTRSSGTEGEAEEMRTLVREVTQIFGEFNVSDFIKLCKNIDIGGFKKRSEDIQKRYDALLEKIISERESERARRGKNRETLGEEGGKDFLDMMLDTMEDGKCEVEITRDHIKALVLDFLTAATDTTAIAVEWTLAELISNPEVFDKAREEIDKVVGKHRLVTELDTPNLPYIHAIIKESFRLHPPIPLVIRKSVQDCTVGGYHISANTILFINIWAIGRNPKYWESPMKFWPERFLESNEPGSVGSTDIKGHHYELLPFGSGRRGCPGMALAMQELPVVLAAMIQCFNWKPVTLDGEELDMSERPGLTAPRAHDLVCVPSARINSFDNF
- Km ([1]; optimized conditions): 8.47 ± 0.52 µM
- kcat ([1]; optimized conditions): 5.08 ± 0.30 s⁻¹

B2: LjFNSII-1.1 (Lonicera japonica; S122A) (protein)
chain: MWIFDLTISFTTLLFLIFTTALLLLLKVFKKNHKLRPPPSPFTLPIIGHLHLLGPLIHQSFHRLSTLYGPLIQLKIGYIPCVVASTPELAKEFLKTHELAFSSRKHSAAIKLLTYDVSFAFAPYGPYWKFIKKTCTFELLGTRNMNHFLPIRTNEIRRFLQVMLEKAKASEGVNVTEELIKLTNNVISQMMFSTRSSGTEGEAEEMRTLVREVTQIFGEFNVSDFIKLCKNIDIGGFKKRSKDIQKRYDALLEKIISERESERARRGKNRETLGEEGGKDFLDMMLDTMEDGKCEVEITRDHIKALVLDFLTAATDTTAIAVEWTLAELISNPEVFDKAREEIDKVVGKHRLVTELDTPNLPYIHAIIKESFRLHPPIPLLIRKSVQDCTVGGYHISANTILFVNIWAIGRNPKYWESPMKFWPERFLESNGPGPVGSMDIKGHHYELLPFGSGRRGCPGMALAMQELPVVLAAMIQCFNWKPVTLDGEELDMSERPGLTAPRAHDLVCVPSARINSFDNF
- Km ([1]; optimized conditions): 10.53 ± 1.18 µM
- kcat ([1]; optimized conditions): 6.08 ± 0.5 s⁻¹

B3: LjFNSII-2.1 (Lonicera japonica) (protein)
chain: B2 chain with A122S, K242E
- Km [2]: 2.56 (0.03) μM
- Vmax [2]: 0.124 µM/min
- kcat [2]: 1.18 s⁻¹
- kcat/Km [2]: 462000 M⁻¹ s⁻¹
- Km [1, 4]: 2.05 (0.04) μM
- Vmax [1, 4]: 0.0984 µM/min
- kcat [1, 4]: 0.94 s⁻¹
- kcat/Km [1, 4]: 460000 M⁻¹ s⁻¹
- Km [3]: 1.63 (0.06) μM
- Vmax [3]: 0.0288 µM/min
- kcat [3]: 0.28 s⁻¹
- kcat/Km [3]: 170000 M⁻¹ s⁻¹

B4: LmFNSII-1.1 (Lonicera macranthoides) (protein)
chain: B1 chain with M204V
- Km [2]: 2.38 (0.07) μM
- Vmax [2]: 0.0738 µM/min
- kcat [2]: 0.7 s⁻¹
- kcat/Km [2]: 295000 M⁻¹ s⁻¹
- Km [1, 4]: 3.09 (0.17) μM
- Vmax [1, 4]: 0.0462 µM/min
- kcat [1, 4]: 0.44 s⁻¹
- kcat/Km [1, 4]: 142000 M⁻¹ s⁻¹
- Km [3]: 1.63 (0.12) μM
- Vmax [3]: 0.021 µM/min
- kcat [3]: 0.2 s⁻¹
- kcat/Km [3]: 122000 M⁻¹ s⁻¹

B5: LjFNSII-1.1 (Lonicera japonica) (protein)
chain: B2 chain with A122S
- Km [2]: 6.48 (0.26) μM
- Vmax [2]: 0.461 µM/min
- kcat [2]: 4.41 s⁻¹
- kcat/Km [2]: 681000 M⁻¹ s⁻¹
- Km [1, 4]: 5.07 (0.05) μM
- Vmax [1, 4]: 0.267 µM/min
- kcat [1, 4]: 2.56 s⁻¹
- kcat/Km [1, 4]: 504000 M⁻¹ s⁻¹
- Km [3]: 9.93 (0.64) μM
- Vmax [3]: 0.166 µM/min
- kcat [3]: 1.59 s⁻¹
- kcat/Km [3]: 160000 M⁻¹ s⁻¹
